We go through four molecules from article PMC8113879, “Molecular properties of human guanylate cyclase–activating protein 2 (GCAP2) and its retinal dystrophy–associated variant G157R” (The Journal of Biological Chemistry, 2021).

One data set addresses GCAP2 (Bos taurus) (UniProt P51177). The experiment in a line: sedimentation equilibrium. To be noted: cited from earlier work.
Data set [1] concerns the molecule itself. The data set can be described thus: MALDI-TOF MS; 1.0 mg/ml protein in 20 mM Tris HCl pH 7.5, 150 mM KCl, 1 mM DTT, desalted by ZipTip C4, sinapinic acid matrix; dimer peaks beside the monomer peak.
Data set [2] deals with the molecule itself. The experiment in a line: SEC; analytical SEC, Superose 12 10/300GL, 20 mM Tris HCl pH 7.5, 150 mM KCl, 1 mM DTT, 500 uM EGTA + 1 mM Mg2+ (no Ca2+), 25 C; ~40 uM protein or 5-80 uM for the titration; apparent KD from a hyperbolic fit of apparent mass against concentration; monomer to dimer.
Data set [3] deals with the molecule itself. The experiment in a line: SEC; analytical SEC, Superose 12 10/300GL, 20 mM Tris HCl pH 7.5, 150 mM KCl, 1 mM DTT, 1 mM Mg2+ + 500 uM Ca2+, 25 C; ~40 uM protein or 5-80 uM for the titration; apparent KD from a hyperbolic fit of apparent mass against concentration; monomer to dimer.

GCAP2 (Bos taurus), sequence (P51177 2-204): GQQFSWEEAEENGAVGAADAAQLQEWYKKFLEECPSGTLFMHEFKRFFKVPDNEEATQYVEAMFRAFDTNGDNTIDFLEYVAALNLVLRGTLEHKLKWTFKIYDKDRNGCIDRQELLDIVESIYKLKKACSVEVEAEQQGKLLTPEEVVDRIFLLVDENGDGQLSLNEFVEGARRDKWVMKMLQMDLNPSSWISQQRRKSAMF

In the case of GCAP2 (from UniProt P51177), the Kd in the data set with GCAP2 (Bos taurus) was 52 µM.

B1: nonmyristoylated human guanylate cyclase-activating protein 2 (natural protein, UniProt Q9UMX6 1-200, looked up)
chain: MGQEFSWEEAEAAGEIDVAELQEWYKKFVMECPSGTLFMHEFKRFFKVTDDEEASQYVEGMFRAFDKNGDNTIDFLEYVAALNLVLRGTLEHKLKWTFKIYDKDGNGCIDRLELLNIVEGIYQLKKACRRELQTEQGQLLTPEEVVDRIFLLVDENGDGQLSLNEFVEGARRDKWVMKMLQMDMNPSSWLAQQRRKSAMF
notes: cDNA cloned into pET-11a(+) with NdeI and NheI; No tag is mentioned; also called nmGCAP2; nonmyristoylated GCAP2
B1: the “stoichiometry N” value in data set [1] was found to be 2.

B2: myristoylated human guanylate cyclase-activating protein 2 (natural protein, UniProt Q9UMX6 1-200, looked up)
chain: MGQEFSWEEAEAAGEIDVAELQEWYKKFVMECPSGTLFMHEFKRFFKVTDDEEASQYVEGMFRAFDKNGDNTIDFLEYVAALNLVLRGTLEHKLKWTFKIYDKDGNGCIDRLELLNIVEGIYQLKKACRRELQTEQGQLLTPEEVVDRIFLLVDENGDGQLSLNEFVEGARRDKWVMKMLQMDMNPSSWLAQQRRKSAMF
modifications: myristic acid covalently bound to the N-terminal Gly
notes: cDNA cloned into pET-11a(+) with NdeI and NheI; Myristoylation was confirmed by MALDI-TOF (difference of 212.2 Da to nmGCAP2); Surmised: the first methionine is removed so that Gly2 is the myristoylated N-terminus; also called mGCAP2; myristoylated GCAP2
As for B2, the “stoichiometry N” value in data set [1] came to 2. The Kd is less than 1 µM in data set [2] and 55.4 µM in data set [3].

B3: myristoylated human GCAP2 G157R variant (natural protein, UniProt Q9UMX6 1-200, looked up)
chain: MGQEFSWEEAEAAGEIDVAELQEWYKKFVMECPSGTLFMHEFKRFFKVTDDEEASQYVEGMFRAFDKNGDNTIDFLEYVAALNLVLRGTLEHKLKWTFKIYDKDGNGCIDRLELLNIVEGIYQLKKACRRELQTEQGQLLTPEEVVDRIFLLVDENRDGQLSLNEFVEGARRDKWVMKMLQMDMNPSSWLAQQRRKSAMF
modifications: myristic acid covalently bound to the N-terminal Gly
notes: The variant occurs in patients (Japanese families with retinitis pigmentosa); also called G157R GCAP2; IRD-associated G157R variant
Regarding B3, in data set [1], the “stoichiometry N” value came to 2.
